From US20140289906A1, “Compositions Having Dicamba Decarboxylase Activity and Methods of Use” (priority 2013, published 2014)

Experiment: 14C assay: 14CO2 capture from [14C]-carboxyl-labeled dicamba with IPTG-induced recombinant E. coli cells
Details: for Dicamba Decarboxylase Activity: IPTG-induced recombinant E. coli cells, 14CO2 from [14C]-carboxyl-labeled dicamba; for Enzymatic Detection level: dicamba decarboxylation activity

Row | Molecule | Dicamba Decarboxylase Activity | Enzymatic Detection level
1 | 85 (protein, listed as Maritimibacter alkaliphilus) MAADRKPGLVSVEEGFMIPEVVAELSRIAGGVPSMKSGPIAGPFMDDLLDIGKGRVARMDADGVAVQILALAAPGVQKFDPDTALALSRLTNDRLAEAIAAHPARFGGLAAAPPQAAREGAKELDRAITTLGLNGLIVNSHTNDLYLDDPSFWPLLEAAEALDVPVYLHPREPAAGIEGGLMAMTGFTVGWAYAVETGTHLLRMIAAGVFDRFPRLRIVLGHLGEMIPFMLDRIDNRYPFEMGVTGAKPLPRKPSDYFRDHVTVATSGMNFNAPMRAAIEVLGADKVMFAADYPMERQDEEVAKFAALDLTPDERKRIGEDNARRVFGL | Low | Low
2 | 75 (protein, listed as Ectocarpus siliculosus) MAKIDSYTHFACPAFMDHLEAESGHPMVFRGLFSSIPELSDIDLRIRYMDEHGIDVHCLVPLPWLECEPGLHADEGKALEACRIANDEMARVVARFPDRLIGVALIPTTTEQAMIQETTRAVKELGMAGVALFVGPTAKPPDMACFEGLYRTCEELGAVVWMHPCRPQSYADYDSYKGEGSKHQIWNTFGWIYDTSVAMVHIALAGVFRRYPGLKVVTHHHGAMVPFFTARFDTQRRNFQEVEGDDLLEDLRLFYCDTATFGESAANIQQAIDFFGKSQVLFGTDTPMDMGTRGMFTRTTIASVEALGAAPEDKESFYAGNVLDMLGERFAGISGARGAVAARPKGDSTRIAASL | Low | Low
3 | 84 (protein, listed as Mycobacterium rhodesiae) MASLIALEEHYAWDPASEGNVVATWLRANNGVAYDRLYDRGPLRIEQMDAAGIDFQILSLFDPGVQDEVDAVRAVDLARRANDDLAESVRANPSRFGGFATLATQQPDAAVAEFDRAVTELGLVGGLINGHCQGRYLDDPAYEALFSRAEALGAPIYLHPTTPHPAVMDAWFAPYVGDGLHLASWGFAAETGTHVLRLIYSGLFDKFPRLQMIIGHLGEMLPFAAYRIDRYYGLGGGGTGHTLQHLPSDYLRNNFHVTTSGNFCSPALDCTLDVMGADRVMFSVDYPMDDNQTGADFLASYPMDDTNRRKVASENALRLFGDRIPAALRN | Low | Low
4 | 80 (protein, listed as Cordyceps militaris) MAAASTPVVVDIHTHMYPPSYIAMLEKRQTIPLVRTFPQADEPRLILLSSELAALDAALADPAAKLPGRPLSTHFASLAQKMHFMDTNGIRVSVISLANPWFDFLAPDEAPGIADAVNAEFSDMCAQHVGRLFFFAALPLSAPVDAVKASIERVKNLKYCRGIILGTSGLGKGLDDPHLLPVFEAVADAKLLVFLHPHYGLPNEVYGPRSEEYGHVLPLALGFPMETTIAVARMYMAGVFDHVRNLQMLLAHSGGTLPFLAGRIESCIVHDGHLVKTGKVPKDRRTIWTVLKEQIYLDAVIYSEVGLQAAIASSGADRLMFGTDHPFFPPIEEDVQGPWDSSRLNAQAVIKAVGEGSSDAAAVMGLNAVRVLSLKAE | Low | Low
5 | 74 (protein, listed as Ramlibacter tataouinensis) MATVIDVHTHMFTTKWLELLKKEGGQYNIQTRPDGQQEIFRGNTPVVIPQKGHFDWKLRIQHMDQAGIDVSVVSLTCPNVYWGGEDVSVRAAREANDNVAQAQTAYPDRIRWFASLPWEYMATVIDVHTHMFTTKWLELLKKEGGQYNIQTRPDGQQEIFRGNTPVVIPQKGHFDWKLRIQHMDQAGIDVSVVSLTCPNVYWGGEDVSVRAAREANDNVAQAQTAYPDRIRWFASLPWEYPQRAVEELERSCAQGAAGVMVLANVAGRSLTDPLFAPVWAEIDRRALPVLVHPTDPPGVDLMDMTKFDLSWSVGFMFDTTLAITRMIFEGFFDRYPNLRIIASHGGGTLPYLVGRFEKGDEVELASRRQMKRKPTDYLRHIHYDCITYNLGALQYLISVVGAGQVMFGTDWPHWVHDTRGAFANTAQLPQEQTRAVRGANAQRLFKL | Low | Low
6 | 72 (protein, Cupriavidus necator) MADCPCCVSPKRRRLLGSVSAIAAGMMAGLPALAAQPSTAAAGTGKPLSIDIHAHYYSESFLGLLGGEGKQFGGHFFRNDDSFTFQTPAGGLGPLPMKFIDVEQRVRDMDNSGVDVQAISLSVPMVYWADRTLNAKLARAWNTAASDVHRKHPTRFVVLATLPMLNANDAIDELEFAAGLPGVRGIYMGTNINNRDLDDPLFSPIFKRIEQLNLPIFLHPQQTVGGARLADFYLSNLLGNPFDTAIAASHLILGGVLDKYPALHFSLPHAGGALPILVGRIDAGWSMRSETKRVAQKPSSYLRRFSYDTISHSGPTLDFLIRNIGADRLVLGSDYCFDMGYEQPVRFLDRLALPDDQKRMVVGGNAARLLNL | Low | Low
7 | 6 (protein, Treponema brennaborense) MAEILSPEESIYYSKLSNDILAEGIKKNPTRFRGFAALPTPDPIQAAMELERCIKLGGFVGAIINGHINGHYLDEIQFDPILEAADALDVPLYIHPAVPPKAIIDTYYKMNDTYAQTVMVSGGWGWHIETGVHVLRLISSGVFDRHPNLKIVIGHLGEGLPFFMHRLNNAIGGNLKKSYSTYLKENIYYTISGFNDPDLFQFVLKKVGENNIMFSSDYPFNFPKREVELFNELNISEEVREKISFKNAERILKI | No | No
8 | 78 (protein, listed as Marinobacter adhaerens) MALIDLHAHAPHPDYYDQHPHWGPAFELQSDGDIKLRVGHWVLSLGAPERKQALREAHARGETLDVQEYMAKWRDPEHRLASMDAAGQNAQVLSVPSHCYMYWAEPEFGVPFAKKVNDSLAEYCSAAPDRLMFWAHAPLNVPKEAAKEIRRACTELGAKGLVAGGSNFGGLEFDSPEMDPVWEALCDLDLPMFVHGYNQSVTWGEEANTDRYETTAIVGMNYDESKCFWYMINGGVFDRFPNLKVYITHGGGFVPYQLGRMAQTNPNLDTYHNKKPFLEYLKNFYFDVELHEVPMRQAMVEVIGADRVLYGSNFGGSDAVRHDLTDDLKLSQEDLDKIRWKNACDLLHLDPNKLGKVRG | Low | Low
9 | 73 (protein, listed as Sphaerobacter thermophilus) MARIDAHAHAQPPEYLDALLASGRYESVRDAEGRIVVRERGSRFLTITPQMHHPEQRVAEMDEAGIDMQILSVTTPQVYFLQGQAAVDLARRCNDYLADIVRSYPTRFRALASVPLTADPDAAVREFVRCLDDLGMVGAIIGSNIDGRPIDDPAFDAFYAEADRRATTLFIHPMVPAGIEVMNPYALAPLVGFMFDTTLAVSRLIFSGFFERYPRVKVLVGHLGAAVPYLAGRLDIGWRSYSDCQGIPHPPTEYIRRLYLDTVSFHAPALRCALETVGPDRIVFGSDYPHVIGDVGGAIASIQQALPATTHDGVLGHTAAELFGVSA | Low | Low
10 | 71 (protein, listed as Burkholderia dolosa) MARAGHRAARTRQSRPGDRTMTCSCCMSAGRRRVLGAFAALAGAPKGPRAASAAQPAAASKPTRGDATARNRHSRALLPGKASASWSATKASGSGGAFAWDDTTFTFRTPAGGLGPLPMKFIDVDARLRDMDASGVDVQALSLSVPMAYWGDRPFNAKLARAWNTAASRVHVRAPDRFVVLATLPMLDATDAIDELERASELPGVRGVYMGTNIDNRDLDDPRFAPVFARIEQLGLPVFLHPQQTVGGARLGDFYLSNLLGNPFDTAIAASHLILGGVLDRHPALHFTLPHAGGALPILVGRLDAGWTVRAETRRLAHQPSGYLRRFSYDTVSHSGPVLNFLIENVGIDRLVLGSDYCFDMGYEQPVRFLDRLDLTPDERAMVIGGNAGRLLRI | Low | Low
11 | 83 (protein, listed as Mycobacterium rhodesiae) MALIALEEHYAWSPVSAGNVVGSWLETHNVTAYQRLYDRGPLRLEQMDAAGIDFQILSLFDPGVQDDDDTARAVENARRANDDLAETVRAAPDRFGGFATLAPQDPDAAAAELERAVGELGLVGGLINGHTHGRYLDDPAYLGLFECAQRLGVPIYLHPTTPHPAVMDAWFAPYVKDGLHLASWGFAAETGTHALRLIYSGLFDTFPRLQMILGHLGEMLPYAAYRIDRYYGLGGGDDGGRLARLPSEYLRDNFHVTTSGNFNPVAFACALDVMGPDRLMFSVDYPMDDNVTGAEFLRNLEVDDDVRRKVAGENALQLFGDKIPRR | Low | Low
12 | 82 (protein, listed as Rhodopseudomonas palustris) MAQNETPVIAIEEHYWDPEMVARFPAGENASPFSTLLTELGDVRLRAMDEAGIDVQVLSHGAPAAQKLPPDVAPELTRRVNDRLAEACARFPNRFAAFAALPTPAPEAAARELERCVRDLGFKGAMIHGLTNGLFIDDKRFWPIFEVAEKLDVPIYLHPSVPHADVTRYYYDDYAREFPTVIRPAWGFTVETATQAIRLILSRALESYPRLQIILGHLGETLPFLLWRINQALARPGQTPLDFRKQFCDHFHVTTSGFFSTPALICTMLELGIDRIMFAVDYPYVVNRDGTDWVQQLQISPDDKRKLVGGNARRLLKL | Low | Low
13 | 76 (protein, listed as Polymorphum gilvum) MAKKIDIFNHIWPEPFFKALIAHIGEMTDITMRSGAVPMMTNLDRRFEVMDMFGPDYMQVLSLASPPLEKLADPAKALELSRIGSDSLAELCQRYPERFPAFIGTAPLSNPAAVVGECRRAIEDLGAAGMQIFTNVAGKPLDLAEFEPFFEYMASAGKPVWLHPARGEAFADYQTEKRSEYEIWWTFGWPYETSAAMARLVFSRMFDKYPGLKVITHHAGGMVPFFEGRVGPGWDQMGARTTDRDLAAVRKALKRPHLDYFKEFYADTASFGSRKAIEHAIEFFGEDRVLFASDAPFDPEGGPMYIRETMRCIDSLDLTDAQRRKIYHGNATALLGLSL | No | No
14 | 77 (protein, Burkholderia xenovorans) MALIDLHAHAPHPGYYNQHPHWGPFFERHEDGDVKLRVGDWILTLGSPERKALVRAGKGPTVEEYQARWADPKVRLAGMDAAGQNAQVVSVPSHCYMYWAEKEFSVPFATKVNDTFAEYCSAAPDRLMFWAHAALNAPEQAALELRRACTELGAKGLVAGGANFGGLEFDSPELDPVWKVLCDLDLPMFIHGYNQSVTWGKKANDDRYETTAIVGMQYDETRCFWNLVCGGVLDRFPGLKVYITHGGGYVPYQLGRLAQCNGNLDVAHNKKPVLEYLKNNFYFDVELHEVPMRQALIDIIGADRVLYGSNFGGSDAVRHDLTEGLRLSDDDLQKIRWKNACKLLHLDPAKIGEPAKKQAVSA | No | No
